B1: 243F6D2 (antibody, V domains shown)
VH: QAYLQQSGAELVRSGASVKMSCRASGYTFTSHNMHWVKQTPGQGLEWIGYIYPGNGGTYYNQKFKGKATLTADTSSSTAYMQISSLTSEDSAVYFCARDYYGNSFVYWGQGTLVTVSA
VL: DVVMTQSPSSLTEKTGEKVSMSCKSSQSLLNSGNQKNYLTWYQQKPGQPPKLLIYWASTRESGVPDRFTGSGSGTDFTLTISSLQTEDLAVYYCQNNYRYPFTFGAGTKLELK
B2: 248E6A7 (antibody, V domains shown)
VH: B1 VH with G57N, G66V, S77N, S84N, A97V
VL: B1 VL with S20T, S22T, T40A, T69I, R99M
B3: 241H10A1 (antibody, V domains shown)
VH: QVQLQQSGAELVKPGASVKLSCKASGYTFTSFGINWLRQRPEQGLEWIGWIFPGDGNSKYNENFKGKATLTTDKSSSTAYMQVTRLTSEDSAVYFCARFYYGNSFANWGQGTLVTVSA
VL: DIVMTQSPSSLTVTAGEKVTMSCKSSQSLLNSGNQKNYLTWYQQKPGQPPKLLIYWAATRESGVPDRFTGSGSGTDFTLTISSVQAEDLAVYYCQNDYFYPFTFGGGTKLELK
B4: 243B4F7 (antibody, V domains shown)
VH: B1 VH with R23K, M34L, G57N, Y59N, A97T, V106A
VL: B1 VL with V2I, T15A, K18R, L30F, L84V, T86A, R99W, Y100F
B5: 246B5F2 (antibody, IgM, V domains shown)
VH: EVMLVESGGGLMKPGGSLKLSCAASEFTFSNYAMSWVRQTPEKRLEWVATISSGRSSTYYPDSVKGRFTISRDNAKNTLYLQMSSLRSEDTAMYYCAGLGRGNAMEYWGQGTSVTVSS
VL: B3 VL with M21L, A58S, T78I, S82N, D97A, F99S, G106S, L112I
B6: 244A1B8 (antibody, V domains shown)
VH: B1 VH with R23K, M34I, G57A, T58P, Y59N, K65R
VL: B1 VL with V2I, T15A, L84V, T86A, N97D
B7: 243B4F2 (antibody, V domains shown)
VH: B1 VH with R23K, M34L, G57N, Y59N, A97T, V106A
VL: B1 VL with V2I, T15A, K18R, L30F, L84V, T86A, R99W, Y100F
B8: 242F5H2 (antibody, V domains shown)
VH: EVMLVESGGGLVKPGGSLKLSCAASGFTFSSYTVSWVRQTPEKRLEWVATSIVGSTYTYFPDSVKGRFTISRDFAKNTLFLQMSSLRSEDTAMYYCSRLGRGNAMDYWGQGTSVSVSS
VL: B3 VL with M21L, S22N, K24R, A58S, E87D, D97G, F99S, G106S, L112I
B9: 242H12D6 (antibody, V domains shown)
VH: B1 VH with R23K, Y59N, S84N, A97T, V106A
VL: B1 VL with V2I, T15A, K18R, L30F, L84V, T86A, N97D
B10: 201F4H6 (antibody, V domains shown)
VH: QVQLKESGPGLVAPSQSLSITCTVSGFSLTSYGVSWVRQPPGKGLECLGVIWAGGNTNYNSALMSRLSISKDKSKSQVFLKMNSLQTDDTAMYYCARVYYGNAMDYWGQGTSVTVSS
VL: B3 VL with N37S, K45R, A58S, Y93F, D97V, Y100F, G106S, L112T
notes: mouse hybridoma mAb
B11: 200A4H8 (antibody, V domains shown)
VH: QVQLKQSGPGLVQPSQSLSITCTVSGFSLTRYGVHWVRQSPGKGLEWLGVIWSGGNTDYNAAFISRLNIRKDNSKSQVFFKMNSLKPNDTAIYYCARAAYFGNSFDYWGQGTTLTVSS
VL: B3 VL with T12P, A58S, E61D, D97N, F99I, F102L, G106A
notes: mouse hybridoma mAb
B12: 280F3B6 (antibody, V domains shown)
VH: B1 VH with R23K, Y59N, A97T, V106A
VL: B3 VL with V13E, T14K, K18R, T20S, L30F, A58S, F99W, G106A
notes: mouse hybridoma mAb
B13: 232C5E3 (antibody, V domains shown)
VH: B1 VH with R23K, M34I, V37I, Q43K, Y59N, G66A, V106A
VL: B3 VL with V3M, V13E, T20S, A58S, T69S, D97G, F99R, Y100F, G106A
notes: mouse hybridoma mAb
B14: 231H4G11 (antibody, V domains shown)
VH: B1 VH with R23K, M34I, Y52S, G57Y, Y59N, K65R, A97T, V106A
VL: B1 VL with V2I, T15A, K18R, L30F, N34S, T69S, L84V, T86A, R99W, Y100F
notes: mouse hybridoma mAb
B15: 239H12G9 (antibody, V domains shown)
VH: B1 VH with R23K, M34I, G57A, T58P, Y59N, K65R
VL: B1 VL with V2I, T15A, L84V, T86A, N97D
notes: mouse hybridoma mAb
B16: 244A1B8 (antibody, V domains shown)
VH: B1 VH with R23K, M34I, G57A, T58P, Y59N, K65R
VL: B1 VL with V2I, T15A, L84V, T86A, N97D
notes: mouse hybridoma mAb
B17: 243B4F7 (antibody, V domains shown)
VH: B1 VH with R23K, M34L, G57N, Y59N, A97T, V106A
VL: B1 VL with V2I, T15A, K18R, L30F, L84V, T86A, R99W, Y100F
notes: mouse hybridoma mAb
B18: 240D6F5 (antibody, V domains shown)
VH: B1 VH with R23K, Y59N, T74P, S84N, A97T, V106A
VL: B1 VL with V2I, T15A, K18R, L30F, L84V, T86A, N97D
notes: mouse hybridoma mAb
B19: 243B4F2 (antibody, V domains shown)
VH: B1 VH with R23K, M34L, G57N, Y59N, A97T, V106A
VL: B1 VL with V2I, T15A, K18R, L30F, L84V, T86A, R99W, Y100F
notes: mouse hybridoma mAb
B20: 232D7C8 (antibody, V domains shown)
VH: B1 VH with R23K, Y59N, Y101F, V106A
VL: B3 VL with V3L, V13A, T20S, L30F, K36R, K45R, A58S, F99R, G106A
notes: mouse hybridoma mAb
B21: 250F4G1 (antibody, V domains shown)
VH: B1 VH with R23K, G57R, Y59N, A97T, V106A
VL: B1 VL with V2I, T15V, K18R, L30F, L84V, T86A, N97D, R99W
notes: mouse hybridoma mAb
B22: 234C9G5 (antibody, V domains shown)
VH: B1 VH with R23K, T28A, Y52S, G57Y, Y59N, K65R, S84G, A97T, V106A
VL: B1 VL with V2I, T15A, K18R, L30F, L84V, T86A, R99W, Y100F
notes: mouse hybridoma mAb
B23: 235A10C9 (antibody, V domains shown)
VH: B1 VH with R23K, T30A, G56S, Y59K, K65T, S84T, V106A
VL: B3 VL with V13E, T14K, T20S, S22R, A58S, E87D, F99M, Y100F, G106A
notes: mouse hybridoma mAb
B24: 181C7B2 (antibody, V domains shown)
VH: B11 VH with R31Y, S53R, N68S, R70N, K86Q, F101Y, S104C
VL: B3 VL with A58S, D97N, F99I, F102L, G106A
notes: mouse hybridoma mAb
B25: 234E1F12 (antibody, V domains shown)
VH: B1 VH with R23K, G42R, G57D, Y59N, A97T, V106A
VL: B1 VL with V2I, T15A, K18R, L30F, L84V, T86A, N97A, R99W
notes: mouse hybridoma mAb
B26: 243F6D2 (antibody, V domains shown)
VH: B1 VH
VL: B1 VL
notes: mouse hybridoma mAb
B27: 233D5E5 (antibody, V domains shown)
VH: B1 VH with R23K, G42R, G57D, Y59N, A97T, V106A
VL: B1 VL with V2I, T15A, K18R, L30F, L84V, T86A, N97A, R99W
notes: mouse hybridoma mAb
B28: 250F4G4 (antibody, V domains shown)
VH: B1 VH with R23K, G57R, Y59N, A97T, V106A
VL: B1 VL with V2I, T15V, K18R, L30F, L84V, T86A, N97D, R99W
notes: mouse hybridoma mAb
B29: 242H12D6 (antibody, V domains shown)
VH: B1 VH with R23K, Y59N, S84N, A97T, V106A
VL: B1 VL with V2I, T15A, K18R, L30F, L84V, T86A, N97D
notes: mouse hybridoma mAb
B30: 207F8G5 (antibody, V domains shown)
VH: QAYLQQSGAELVRSGASVKMSCKASGFTFTSYNIHWVKQTPGQGLEWIGYISPGNGGSNYNLKFKDKATLTSATSSSTAYMQISSLTSEDSAVYFCATGRGFAYWGQGTLVTVSA
VL: DIVMTQSPSSLTVTPGEKVTMSCKSSQSLFNSGNQKNYLIWYQQKPGQPPKLLIYRASTRDSGVPDRFTGSGSGTDFTLTISNVQAEDLAIYYCQNDYSYPLTFGAGTKLELK
notes: mouse hybridoma mAb
B31: 217D9G2 (antibody, V domains shown)
VH: B30 VH with K63N, S72A, S77T
VL: B30 VL with K24R, I91V
notes: mouse hybridoma mAb
B32: 222B6G5 (antibody, V domains shown)
VH: B30 VH with A2T, F27Y, S58T, N59Y, S72T
VL: B30 VL with I91V
notes: mouse hybridoma mAb; also called 222B6G5-2

Positions count from the first letter of the chain named. Several values for one entry are separate records, joined by “and”; a condition that tells them apart may be missing. Equal entries are not always repeated.

The target in the first test is human Claudin18.2 (human). Kind of test: cell-based or functional assay.
Turning to B1, the “CDC % Relative activity” value came to 70.5% and the “CDC EC50” value turned out to be 2 µg/mL.
For B2, in that order: 161% and 0.876 µg/mL.
With B3, the “CDC % Relative activity” value worked out at 625% and the “CDC EC50” value is 0.225 µg/mL.
The like results for B4 were, in that order, 149% and 0.941 µg/mL.
For B5, in that order: 787% and 0.179 µg/mL.
Take B6: the “CDC % Relative activity” value came to 102% and the “CDC EC50” value was 1.39 µg/mL.
The like results for B7 were, in that order, 134% and 1.05 µg/mL.
As for B8, the “CDC % Relative activity” value worked out at 149% and the “CDC EC50” value was found to be 0.944 µg/mL.
For B9, in that order: 112% and 1.26 µg/mL.

In another test the target is T1, human Claudin18.2 (human).
T1 construct: also called CLDN18.2
The experiment in a line: cell ELISA, Claudin18.2-expressing HEK293T cells. On the procedure: To determine protein binding EC₅₀ by Cell ELISA, 96-well U-bottom microplates were pre-blocked with blocking buffer (5% MPBS, 1×PBS with 5% skim milk) overnight at 4° C. On the next day, the Claudin18.2-expressing HEK293T stable cell line was suspended at 1.5×10⁶ cells/ml in blocking buffer, added to the plate in 100 μl/well and incubated at room temperature for 1 hour.
Raw data were plotted with GraphPad Prism v6.02 software with four parameters, best-fit value program to analyze the EC₅₀.
For B10, the EC50 – broadly, the concentration that produces a half-maximal response – turned out to be 283 pM.
B11 showed a concentration giving a half-maximal response (EC50) of 1010 pM.
On the same count and under the same terms, under B12 stands 582 pM; under B13, 651 pM.
Still for that read-out and setting: under B14 stands 1010 pM; under B15, 732 pM.
Same read-out and setting: under B16 stands roughly 439 pM; under B17, roughly 411 pM.
In turn, B18 yielded an EC50 of 1770 pM.
Same read-out and setting: to B19 belongs 684 pM; to B20, 738 pM; to B21, 415 pM.
Same read-out and setting: under B22 stands 562 pM; under B23, 630 pM.
The same measure, in the same setting: to B24 belongs 1070 pM.
For B25, the EC50 was found to be 570 pM. This EC50 lies about 1.9-fold lower than the previous one.
As to B26, the midpoint of the response, the EC50, lay at 960 pM.
The same measure, in the same setting: under B27 stands 803 pM.
B28 returned a concentration giving a half-maximal response (EC50) of 199 pM. This EC50 lies about 4-fold lower than the previous one.
On the same count and under the same terms, to B29 belongs 744 pM.
The same measure, in the same setting: under B30 stands 822 pM.
B31 showed an EC50 of 908 pM.
The same measure, in the same setting: to B32 belongs 1130 pM and 1380 pM.

Source of the values: patent publication US20220073643A1 (NANJING GENSCRIPT BIOTECH, published 2022).
